Sequences and labels used below:
B1: LINE1-full (parent)
chain: UACGUAGGUGGUUUUCCCCUGAUAGUGCUAAGGGGGCCUGGAAGUUUGGACUGGGCAGAGCUCAACACAGCGUGGCAAAGUGGCUGUGGCUAGACUGCCUCUCUGGAUUCCUCGUCACUCAGCAGGGCAUCUCUGAGAGAAAUGCC

In this series the parent is B1. The series is described as follows: self-cleavage, relative activity (ratio to wild type); higher = more cleavage; in vitro, sequencing; the parent is a self-cleaving ribozyme.
With UACGUAGGUGGUUUUCCCCUGAUAGUGCUAAGGGGGCCUGGAAGUUUGGACUGGGCAGAGCUCAACACAGCGUGGCAAAGUGGCUGUGGCUAGUCUGCCUCUCUGGAUUCCUCGUCACUCAGCAGGGCAACUCUGAGAGAAAUGCC, the self-cleavage is 0.23. Regarding UACGUAGGUGGUUUUCCCCUGAUAGUGCUAAGGGGGCCUGGAAGUUUGGACUGGGCAGAGCUCAACACAGCGUGGCAAAGUGGCUGUGGCUAGAAUGCCUCUCUGGAUUCCUCGUCACUCAGCAGGGCAUCUCUGUGAGAAAUGCC, the self-cleavage came to 0.05. Turning to UACGUAGGUGGUUUUCCCCUGAUAGUGCUAAGGGGGCCUGGAAGUUUGGACUGGGCAGAGCUCAACACAGCGUGGCAAAGUGGCUGUGGCUAGAAUGCCUCUCUGGAUUCCUCGUCACUCUGCAGGGCAUCUCUGAGAGAAAUGCC, the self-cleavage was determined as 0.05. Turning to UACGUAGGUGGUUUUCCCCUGAUAGUGCUAAGGGGGCCUGGAAGUUUGGACUGGGCAGAGCUCAACACAGCGUGGCAAAGUGGCUGUGGCUAGUCUGCCUCUCUGGAUUCCUCGUCACUCAGCAGGGCAUCUCUGAGAGAAACGCC, the self-cleavage came out at 0.24.

UACGUAGGUGGUUUUCCCCUGAUAGUGCUAAGGGGGCCUGGAAGUUUGGACUGGGCAGAGCUCAACACAGCGUGGCAAAGUGGCUGUGGCUAGUCUGCCUCUCUGGAUUCCUCGUCACUCAGCAGGGCAUCUCUGAGAGAAAAGCC: the self-cleavage was 0.21.

UACGUAGGUGGUUUUCCCCUGAUAGUGCUAAGGGGGCCUGGAAGUUUGGACUGGGCAGAGCUCAACACAGCGUGGCAAAGUGGCUGUGGCUAGUCUGCCUCUCUGGAUUCCUCGACACUCAGCAGGGCAUCUCUGAGAGAAAUGCC: the self-cleavage came to 0.31. On to UACGUAGGUGGUUUUCCCCUGAUAGUGCUAAGGGGGCCUGGAAGUUUGGACUGGGCAGAGCUCAACACAGCGUGGCAAAGUGGCUGUGGCUAGUCUGCCUCUCUGGAUUCCUCGCCACUCAGCAGGGCAUCUCUGAGAGAAAUGCC, for which the self-cleavage was determined as 0.45. Regarding UACGUAGGUGGUUUUCCCCUGAUAGUGCUAAGGGGGCCUGGAAGUUUGGACUGGGCAGAGCUCAACACAGCGUGGCAAAGUGGCUGUGGCUAGAAUGCCUCUCCGGAUUCCUCGUCACUCAGCAGGGCAUCUCUGAGAGAAAUGCC, the self-cleavage worked out at 0.08. The figure for UACGUAGGUGGUUUUCCCCUGAUAGUGCUAAGGGGGCCUGGAAGUUUGGACUGGGCAGAGCUCAACACAGCGUGGCAAAGUGGCUGUGGCUAGAAUGCCUCUCUGGAUUCCUCGUCACUCAGCAGGGCAUCUCUGAGGGAAAUGCC is 0.09; for UACGUAGGUGGUUUUCCCCUGAUAGUGCUAAGGGGGCCUGGAAGUUUGGACUGGGCAGAGCUCAACACAGCGUGGCAAAGUGGCUGUGGCUAGAAUGCCUCUCUGGAUUCCUCGUCACUCAGCAGGGCGUCUCUGAGAGAAAUGCC it is 0.09. For UACGUAGGUGGUUUUCCCCUGAUAGUGCUAAGGGGGCCUGGAAGUUUGGACUGGGCAGAGCUCAACACAGCGUGGCAAAGUGGCUGUGGCUAGAAUGCCUCUCUGGAUUCCUCGUCACUCAGCAGGGCAUCUCUGAGAGAAGUGCC, the self-cleavage came to 0.08. In the case of UACGUAGGUGGUUUUCCCCUGAUAGUGCUAAGGGGGCCUGGAAGUUUGGACUGGGCAGAGCUCAACACAGCGUGGCAAAGUGGCUGUGGCUAGAAUGCCUCUCUGGACUCCUCGUCACUCAGCAGGGCAUCUCUGAGAGAAAUGCC, the self-cleavage is 0.

For the variant UACGUAGGUGGUUUUCCCCUGAUAGUGCUAAGGGGGCCUGGAAGUUUGGACUGGGCAGAGCUCAACACAGCGUGGCAAAGUGGCUGUGGCUAGUCUGCCUCUCUGGAUUCCUCGUCACCCAGCAGGGCAUCUCUGAGAGAAAUGCC, the self-cleavage worked out at 0.28. With UACGUAGGUGGUUUUCCCCUGAUAGUGCUAAGGGGGCCUGGAAGUUUGGACUGGGCAGAGCUCAACACAGCGUGGCAAAGUGGCUGUGGCUAGAAUGCCUCUCUGGAUUCCUCGCCACUCAGCAGGGCAUCUCUGAGAGAAAUGCC, the self-cleavage was found to be 0.11. For UACGUAGGUGGUUUUCCCCUGAUAGUGCUAAGGGGGCCUGGAAGUUUGGACUGGGCAGAGCUCAACACAGCGUGGCAAAGUGGCUGUGGCUAGUCUGCCUCUCUGGAUUCCUCGUCACUCAGCAGGGCAUCUCGGAGAGAAAUGCC, the self-cleavage is 0.2. In the case of UACGUAGGUGGUUUUCCCCUGAUAGUGCUAAGGGGGCCUGGAAGUUUGGACUGGGCAGAGCUCAACACAGCGUGGCAAAGUGGCUGUGGCUAGUCUGCCUCUCUGGAUUCCUCGUCACUCAGCAGGGCAUCUCCGAGAGAAAUGCC, the self-cleavage worked out at 0.32. The figure for UACGUAGGUGGUUUUCCCCUGAUAGUGCUAAGGGGGCCUGGAAGUUUGGACUGGGCAGAGCUCAACACAGCGUGGCAAAGUGGCUGUGGCUAGUCUGCCUCUCUGGAUUCCUCGUCACUCAGCAGGGCAUCUCAGAGAGAAAUGCC is 0.25. For the variant UACGUAGGUGGUUUUCCCCUGAUAGUGCUAAGGGGGCCUGGAAGUUUGGACUGGGCAGAGCUCAACACAGCGUGGCAAAGUGGCUGUGGCUAGUCUGCCUCUCUGGAUUCCUCGUCACUCAGCAGGGCAUCCCUGAGAGAAAUGCC, the self-cleavage came to 0.52.

As to UACGUAGGUGGUUUUCCCCUGAUAGUGCUAAGGGGGCCUGGAAGUUUGGACUGGGCAGAGCUCAACACAGCGUGGCAAAGUGGCUGUGGCUAGAAUGCCUCCCUGGAUUCCUCGUCACUCAGCAGGGCAUCUCUGAGAGAAAUGCC, the self-cleavage is 0.11. With UACGUAGGUGGUUUUCCCCUGAUAGUGCUAAGGGGGCCUGGAAGUUUGGACUGGGCAGAGCUCAACACAGCGUGGCAAAGUGGCUGUGGCUAGAAUGCCUCUCUGGAUUCCUCGUCACUCAGCAGGGCAUCUCUGAGAGAAAUGCU, the self-cleavage amounted to 0.08.
